Measurements from publication doi:10.1101/2024.01.14.575549v2 (bioRxiv, 2024).

Tests used:
[1] = tested on: human neuroblastoma SH-SY5Y cells; experiment: Aβ42 aggregates on SH-SY5Y cells with or without 1,6-hexanediol treatment; format: cell-based
[2] = Diffusion coefficient of free Aβ42 in solution by MDS; format: physicochemical; conditions: Stokes-Einstein equation from hydrodynamic radius measured by MDS
[3] = Susceptibility of Aβ42 condensates to 1,6-hexanediol and KCl in vitro; format: physicochemical; conditions: confocal microscopy
[4] = format: physicochemical

Compound | decrease of Aβ42 aggregate number normalised by total cell area, versus vehicle ([1]; SH-SY5Y cells, 2 μM Aβ42 monomer for 16 h, then 2.5% w/v 1,6-hexanediol) [%] | diffusion coefficient of Aβ42 in solution [2] | response of mature Aβ42 condensates to 100% 1,6-hexanediol ([3]; condensates incubated 22 h on DMPC membrane, 100% (6 M) HXD) | response of Aβ42 condensates to 50% 1,6-hexanediol ([3]; condensates on lipid membrane, 50% HXD) | area of Aβ42 species at high cell densities ([1]; SH-SY5Y 40 000 cells/well, 2 μM monomer, 48 h incubation) [µm^2] | timescale for the direct solution to amyloid fibril transition ([4]; estimated from Figure 6d (FCS, non-LLPS conditions)) [h] | ΔG^‡LLPS, free energy barrier for monomeric to liquid transition ([4]; from t = 3 h, c = 2 μM) [kcal/mol] | ΔG^‡LTS, free energy barrier for liquid to solid transition ([4]; from t = 21 h) [kcal/mol]
OCCCCCCO [HXD, 1,6-hexanediol, reference compound] | 30 | – | – | – | – | – | – | –
amyloid β1-42 [Aβ42] | – | 1.4 ± 0.1 × 10^−10 m^2s^−1 | remained intact | dissolved | < 50 | 61 | 8.01 | 8.05
